# Data reported in PMC7783346.
# Several values for one entry are separate records, joined by “and”; a condition that tells them apart may be missing. Identical values can stand only once.
# What was measured:
# [1] = molecular target: KfrA of plasmid RA3, intact, fused to a CyaA fragment (BACTH) (plasmid RA3 (IncU), isolated from Aeromonas spp.); test: two-hybrid; bacterial adenylate cyclase two-hybrid (BACTH) in E. coli BTH101 cyaA; CyaA T18 and T25 fusions; MacConkey plates with 1% maltose and β-galactosidase assays in liquid cultures
# [2] = molecular target: KorB of plasmid RA3 fused to a CyaA fragment (BACTH) (plasmid RA3 (IncU), isolated from Aeromonas spp.); test: as above
# [3] = molecular target: IncC of plasmid RA3 fused to CyaA T25 (BACTH) (plasmid RA3 (IncU), isolated from Aeromonas spp.); test: as above
# [4] = molecular target: His6-KfrCRA3 labelled with RED-Tris-NTA (plasmid RA3 (IncU), isolated from Aeromonas spp.); test: MST; labelled His6-KfrC constant at 50 nM, KfrA from 500 nM to 0.0153 nM; 50 mM KPi pH 7.4, 300 mM NaCl, 0.05% Tween 20; measured at 37°C on Monolith NT.115; four independent experiments
# [5] = system: His6-KfrA178-355 (plasmid RA3 (IncU; Aeromonas hydrophila in Fig S1/S3)); test: EMSA; conditions: EMSA: 50 mM Tris-HCl pH 8.0, 10 mM MgCl2, 50 mM NaCl, 37 C, 30 min, 10 nM EcoRI-NdeI-digested plasmid DNA (vector fragment as internal competitor), 20 ul …
# [6] = system: His6-KfrA WT (plasmid RA3 (IncU; Aeromonas hydrophila in Fig S1/S3)); test: EMSA; conditions: EMSA: 50 mM Tris-HCl pH 8.0, 10 mM MgCl2, 50 mM NaCl, 37 C, 30 min, 10 nM EcoRI-NdeI-digested plasmid DNA (vector fragment as internal competitor), 20 ul …
substance,measurement,setting,value
"KfrA of plasmid RA3, intact, fused to a CyaA fragment (BACTH) (natural protein)",β-galactosidase activity,[1],4880 U and 5170 U
same,β-galactosidase activity,[2],1970 U
same,β-galactosidase activity,[3],136 U
KfrARA3 with the His6 tag removed (natural protein),Kd,[4],54 nM
"KfrC of plasmid RA3, intact, fused to a CyaA fragment (BACTH) (natural protein)",β-galactosidase activity,[2],1010 U
"WT OK (kfrAp), EcoRI-NdeI fragment of pESB2.68",K half,[5],1700 nM
same,K half,[6]; OK variant series,240 nM
same,K half,[6]; preparation used with Ala variants,180 nM
same,K half,"[6]; preparation used with deletion variants, preparations ranged 0.18-0.32 uM",320 nM
pUC18 vector control fragment,K half,[5],1000 nM
